Experiments:
human MCP-2 [1] = biological target: T1, human MCP-2 (human, UniProt P80075 24-99); experiment: KinExA, in solution
T1 construct: also called hMCP-2; huMCP-2
T1 sequence (looked up): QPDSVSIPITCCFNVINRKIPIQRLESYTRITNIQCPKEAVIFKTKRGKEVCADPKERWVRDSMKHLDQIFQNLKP
Protocol: (§1) Polymethylmethacrylate beads activated with NHS were coated with 10 μg recombinant human MCP-1 in 1 ml buffer. The beads were packed into a column in the KinExA instrument for each sample. This packed bead column is able to capture free MCP mAb or Fab flowed through the column. The amount of free mAb or Fab in solution was determined using a secondary goat anti-mouse heavy and light chain IgG-Cy5 conjugate.
(§2) A fixed amount of 11K2 mAb, 1A1 mAb, 11K2 Fab, or 1A1 Fab was incubated with various amounts of human MCP-1, MCP-2 or MCP-3 for three hours. The amount of uncomplexed free antibody remaining in solution was determined by flowing these mixtures over the MCP-1-loaded bead column and labeling with the Cy5 secondary antibody. The fluorescent signal was plotted against the MCP concentration and the affinity was determined using a quadratic curve fit

human MCP-1 [2] = biological target: T2, human MCP-1 (human, UniProt P13500 24-99); experiment: KinExA, in solution
T2 construct: also called hMCP-1; huMCP-1
Protocol: as §1, §2

human MCP-2 [3] = biological target: T1, human MCP-2; experiment: KinExA, in solution, Fab
Protocol: (§3) 1 ml of MCP-1 at a concentration of 10 μg/ml in NaHCO₃ was added to an amount of beads equivalent to 1 ml of the original slurry. The beads were rocked overnight at 4° C. Beads were spun down and washed once with 1M Tris, pH 8.0, then resuspended in 1M Tris pH 8.0 with 1% BSA, 0.02% azide. The beads were rocked at room temperature for one hour then stored at 4° C. in this buffer for the duration of the experiments.
(§4) The KinExA 3000 measures protein-protein interaction in solution, and is ideally suited for measuring affinities of antibodies to antigens. In the typical experiment, antigen (MCP) is immobilized on a bead, antibody is flowed over a column of these beads at a given concentration, and the antibody that binds to the beads is detected using a fluorescent secondary. Antibody at a fixed concentration is then incubated with different concentrations of antigen in solution and the amount of free antibody is measured by flowing the mixture over the bead column quickly enough that no re-equilibration occurs between solution and solid phase. The amount of antibody remaining free is plotted against the concentration of antigen added and the data are fit to a quadratic equation to determine the affinity of the interaction in solution.
In these experiments, the only difference to the typical experiment described above is that instead of using intact antibody, a Fab fragment of 11K2 was used. Earlier KimExA experiments using the intact murine 11K2 mAb binding to MCP-1 and MCP-2 gave biphasic curves that the software could not interpret. This may be due to these proteins acting as dimers, so to eliminate the dimer/dimer interaction we generated Fab fragments. The binding of the 11K2 Fab fragments to MCP-1 and MCP-2 produced curves that the KinExA software could fit.

human MCP-1 [4] = biological target: T2, human MCP-1; experiment: KinExA, in solution, Fab; Fab, not intact mAb
Protocol: as §3
as §4, with “solution. […]” for “solution.”

Kd (human MCP-2 [1]): 0.43 nM
Kd (human MCP-1 [2]): 0.011 nM
Kd (human MCP-2 [3]): 0.43 nM
Kd (human MCP-1 [4]): 0.011 nM
B1: Fab fragment of murine 11K2 (Fab, V domains shown)
VH: EVQLQQSGAELVKAGASVKLSCPASGLNIKDTYMHWVKQRPEQGLEWIGRIDPANGNTKFDPKFQGKATITADTSSNTAYLQLSSLTSEDTAVYYCARGVFGFFDYWGQGTTLTVSS
VL: DIQMTQSSSSFSVSLGDRVTITCKATEDIYNRLAWYQQKPGSAPRLLISGATSLETGVPSRFSGSGSGKDYTLSITSLQTEDVATYYCQQFWSAPYTFGGGTKLEIK
notes: also called 11K2 Fab; mu11K2 Fab

Reference: US20070134236A1 (Biogen, published 2007)
